Assay results as given in article PMC5145805, “Structural Basis for Selective Interaction between the ESCRT Regulator HD-PTP and UBAP1” (Structure(London, England:1993), 2016).
“Also recorded” adds a separate entry of the source.

Assays:
[1] = system: FKBP-HD-PTPBro1-CC in HeLa cells; assay: Mitochondrial targeting (FKBP-HD-PTPBro1-CC / Mito-FRB relocalization, immunofluorescence); type: cell-based; details: rapamycin 1 μM, 3 hr; for relocation to mitochondria with HD-PTPBro1-CC: HeLa
Experimental: Mitochondrial targeting experiments were performed as previously described ([Sato et al., 2015]). HeLa cells were transiently transfected with HD-PTPBro1-CC containing an N-terminal FKBP sequence and a C-terminal myc tag (cloned into pcDNA5), Mito-FRB (a gift from Martin Lowe, Manchester, UK), and either GFP, WT UBAP1-GFP, or F268S UBAP1-GFP (in pEGFP). Mitochondrial relocation of FKBP-HD-PTPBro1-CC-myc was induced by addition of 1 μM rapamycin (Sigma) for 3 hr. Cells were then prepared for immunofluorescence microscopy as above. Mitochondrial relocation of GFP-tagged constructs was scored in three independent experiments (100 cells counted per experiment).

HD-PTPBro1-CC = target: T1, HD-PTPBro1-CC (Homo sapiens, UniProt Q9H3S7); assay: Yeast two-hybrid interaction with HD-PTPBro1-CC; type: binding; details: Matchmaker Gold, each triplicate experiment repeated at least three times
T1 construct: HD-PTPBro1-CC (1–714) was cloned into a pET28a vector with restriction sites Nde1 and Xho1; made in house; host or cells: Escherichia coli BL21(DE3)
T1 sequence (Q9H3S7 1-714): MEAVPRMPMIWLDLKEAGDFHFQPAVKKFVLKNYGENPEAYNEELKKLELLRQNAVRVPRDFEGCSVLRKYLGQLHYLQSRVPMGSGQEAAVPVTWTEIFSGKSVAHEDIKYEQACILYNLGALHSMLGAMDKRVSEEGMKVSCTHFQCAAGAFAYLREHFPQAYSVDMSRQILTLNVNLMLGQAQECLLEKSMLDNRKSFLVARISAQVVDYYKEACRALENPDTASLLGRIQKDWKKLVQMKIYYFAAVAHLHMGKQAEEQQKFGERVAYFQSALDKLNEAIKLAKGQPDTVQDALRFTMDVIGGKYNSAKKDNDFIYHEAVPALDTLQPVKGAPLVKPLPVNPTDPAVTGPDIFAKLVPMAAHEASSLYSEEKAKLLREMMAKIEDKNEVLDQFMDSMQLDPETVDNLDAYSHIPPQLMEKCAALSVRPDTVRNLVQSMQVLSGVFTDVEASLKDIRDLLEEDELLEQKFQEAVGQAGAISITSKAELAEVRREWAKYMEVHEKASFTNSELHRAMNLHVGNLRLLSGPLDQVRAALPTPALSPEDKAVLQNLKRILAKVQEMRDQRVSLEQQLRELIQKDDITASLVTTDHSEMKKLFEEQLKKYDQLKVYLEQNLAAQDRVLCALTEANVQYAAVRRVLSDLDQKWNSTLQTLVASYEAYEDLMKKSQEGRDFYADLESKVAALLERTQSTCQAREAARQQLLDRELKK
Experimental: HD-PTPBro1-CC, HD-PTPBro1-CC F678D, and AlixBro1-V cloned into pGBKT7 were used as described previously ([Stefani et al., 2011]). UBAP1 (122–308) was cloned into pGADT7. Further deletion and missense mutations in UBAP1 as indicated were generated by standard PCR-based mutagenesis. Interactions were tested using the Matchmaker Gold system (Clontech) as described previously ([Stefani et al., 2011]) Each triplicate experiment was repeated at least three times.

[2] = target: T2, HD-PTPCC (coiled-coil domain of HD-PTP, residues 363-712) (UniProt Q9H3S7 363-712); assay: SPR; ProteOn XPR36; HD-PTP constructs (50-100 ug/mL) immobilised on an HTE chip, peptides injected (50 uL at 100 uL/min); 25 C; 10 mM HEPES pH 7.4, 150 mM NaCl, 0.05% Tween 20; equilibrium binding model; details: both partners purified
T2 construct: HD-PTP (His domain protein tyrosine phosphatase; PTPN23), coiled-coil domain, residues 363-712; Form used in the biosensor (SPR) and NMR experiments; immobilisation was on an HTE chip, which probably captures the His tag (surmise); also called CC domain of HD-PTP; WT HD-PTPCC; source: E. coli BL21(DE3), purified (nickel beads, Mono Q anion exchange, Superdex200)
T2 sequence (looked up): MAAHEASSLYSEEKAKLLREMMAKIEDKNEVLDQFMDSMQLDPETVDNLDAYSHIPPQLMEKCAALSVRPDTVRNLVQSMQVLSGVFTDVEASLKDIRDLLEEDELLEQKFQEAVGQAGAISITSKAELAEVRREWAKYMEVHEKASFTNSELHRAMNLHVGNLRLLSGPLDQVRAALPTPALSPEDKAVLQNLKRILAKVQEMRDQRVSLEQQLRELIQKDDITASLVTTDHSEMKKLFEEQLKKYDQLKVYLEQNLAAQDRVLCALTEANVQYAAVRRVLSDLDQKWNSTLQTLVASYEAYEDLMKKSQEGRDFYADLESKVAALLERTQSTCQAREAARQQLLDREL

[3] = target: T3, HD-PTP_(Bro1-CC) (residues 1-714), His6-tagged (UniProt Q9H3S7 1-714); assay: as above; details: both partners purified
T3 construct: HD-PTP (PTPN23), Bro1 and coiled-coil domains, residues 1-714; Precipitated by an anti-His antibody in the co-immunoprecipitation; immobilised on an HTE chip in SPR; also called His6-HD-PTP_(Bro1-CC); source: E. coli BL21(DE3), purified (nickel beads, Mono Q anion exchange, Superdex200)
T3 sequence (looked up): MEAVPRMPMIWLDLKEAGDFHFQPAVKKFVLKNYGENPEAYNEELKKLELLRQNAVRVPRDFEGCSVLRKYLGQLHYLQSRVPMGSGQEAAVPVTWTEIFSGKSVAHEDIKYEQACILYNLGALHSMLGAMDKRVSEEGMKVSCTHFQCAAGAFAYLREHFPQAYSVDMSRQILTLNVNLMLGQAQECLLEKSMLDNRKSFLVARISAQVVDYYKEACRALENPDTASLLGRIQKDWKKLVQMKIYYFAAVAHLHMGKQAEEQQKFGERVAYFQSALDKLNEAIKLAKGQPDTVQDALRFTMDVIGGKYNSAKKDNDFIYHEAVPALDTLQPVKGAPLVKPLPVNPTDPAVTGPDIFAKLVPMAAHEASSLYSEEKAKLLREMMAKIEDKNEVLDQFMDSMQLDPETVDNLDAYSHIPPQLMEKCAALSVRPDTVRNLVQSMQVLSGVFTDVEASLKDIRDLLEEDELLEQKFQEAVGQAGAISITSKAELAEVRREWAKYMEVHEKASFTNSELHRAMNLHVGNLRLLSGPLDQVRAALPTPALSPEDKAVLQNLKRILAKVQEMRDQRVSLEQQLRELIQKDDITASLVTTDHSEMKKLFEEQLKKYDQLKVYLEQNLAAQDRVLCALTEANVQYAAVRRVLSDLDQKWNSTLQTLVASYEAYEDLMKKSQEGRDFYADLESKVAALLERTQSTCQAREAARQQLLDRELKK

Molecule: CO[C@H]1C[C@@H]2CC[C@@H](C)[C@@](O)(O2)C(=O)C(=O)N2CCCC[C@H]2C(=O)O[C@H]([C@H](C)C[C@@H]2CC[C@@H](O)[C@H](OC)C2)CC(=O)[C@H](C)/C=C(\C)[C@@H](O)[C@@H](OC)C(=O)[C@H](C)C[C@H](C)/C=C/C=C/C=C/1C [rapamycin, reference compound]
- relocalization of HD-PTPBro1-CC to mitochondria ([1]; FKBP-HD-PTPBro1-CC with mito-FRB): efficient relocalization

Molecule: residues 260–269: minimal region of UBAP1 for effective binding to HD-PTP (VSNIKSLSFP; UniProt Q9NZ09 260-269, looked up, fragment)
- Y2H binding to HD-PTP (HD-PTPBro1-CC): minimal region for effective binding

B1: UBAP1-GFP: UBAP1 GFP fusion, wild-type (protein)
chain: MASKKLGADFHGTFSYLDDVPFKTGDKFKTPAKVGLPIGFSLPDCLQVVREVQYDFSLEKKTIEWAEEIKKIEEAEREAECKIAEAEAKVNSKSGPEGDSKMSFSKTHSTATMPPPINPILASLQHNSILTPTRVSSSATKQKVLSPPHIKADFNLADFECEEDPFDNLELKTIDEKEELRNILVGTTGPIMAQLLDNNLPRGGSGSVLQDEEVLASLERATLDFKPLHKPNGFITLPQLGNCEKMSLSSKVSLPPIPAVSNIKSLSFPKLDSDDSNQKTAKLASTFHSTSCLRNGTFQNSLKPSTQSSASELNGHHTLGLSALNLDSGTEMPALTSSQMPSLSVLSVCTEESSPPNTGPTVTPPNFSVSQVPNMPSCPQAYSELQMLSPSERQCVETVVNMGYSYECVLRAMKKKGENIEQILDYLFAHGQLCEKGFDPLLVEEALEMHQCSEEKMMEFLQLMSKFKEMGFELKDIKEVLLLHNNDQDNALEDLMARAGAS
modifications: left off: GFP, end not stated, kept
notes: UBAP1 GFP fusion, wild-type
- relocation to mitochondria with HD-PTPBro1-CC [1]: relocated to mitochondria; also recorded: translocates to mitochondria

B2: L271A: L271A mutation in UBAP1, Y2H fragment (protein, UniProt Q9NZ09 1-502, looked up, variant L271A)
Ubiquitin-associated protein 1: MASKKLGADFHGTFSYLDDVPFKTGDKFKTPAKVGLPIGFSLPDCLQVVREVQYDFSLEKKTIEWAEEIKKIEEAEREAECKIAEAEAKVNSKSGPEGDSKMSFSKTHSTATMPPPINPILASLQHNSILTPTRVSSSATKQKVLSPPHIKADFNLADFECEEDPFDNLELKTIDEKEELRNILVGTTGPIMAQLLDNNLPRGGSGSVLQDEEVLASLERATLDFKPLHKPNGFITLPQLGNCEKMSLSSKVSLPPIPAVSNIKSLSFPKADSDDSNQKTAKLASTFHSTSCLRNGTFQNSLKPSTQSSASELNGHHTLGLSALNLDSGTEMPALTSSQMPSLSVLSVCTEESSPPNTGPTVTPPNFSVSQVPNMPSCPQAYSELQMLSPSERQCVETVVNMGYSYECVLRAMKKKGENIEQILDYLFAHGQLCEKGFDPLLVEEALEMHQCSEEKMMEFLQLMSKFKEMGFELKDIKEVLLLHNNDQDNALEDLMARAGAS
- Y2H binding to HD-PTP (HD-PTPBro1-CC): no obvious effect on binding; also recorded: weaker phenotype

B3: P269A: P269A mutation in UBAP1, Y2H fragment (protein, UniProt Q9NZ09 1-502, looked up, variant P269A)
Ubiquitin-associated protein 1: MASKKLGADFHGTFSYLDDVPFKTGDKFKTPAKVGLPIGFSLPDCLQVVREVQYDFSLEKKTIEWAEEIKKIEEAEREAECKIAEAEAKVNSKSGPEGDSKMSFSKTHSTATMPPPINPILASLQHNSILTPTRVSSSATKQKVLSPPHIKADFNLADFECEEDPFDNLELKTIDEKEELRNILVGTTGPIMAQLLDNNLPRGGSGSVLQDEEVLASLERATLDFKPLHKPNGFITLPQLGNCEKMSLSSKVSLPPIPAVSNIKSLSFAKLDSDDSNQKTAKLASTFHSTSCLRNGTFQNSLKPSTQSSASELNGHHTLGLSALNLDSGTEMPALTSSQMPSLSVLSVCTEESSPPNTGPTVTPPNFSVSQVPNMPSCPQAYSELQMLSPSERQCVETVVNMGYSYECVLRAMKKKGENIEQILDYLFAHGQLCEKGFDPLLVEEALEMHQCSEEKMMEFLQLMSKFKEMGFELKDIKEVLLLHNNDQDNALEDLMARAGAS
- Y2H binding to HD-PTP (HD-PTPBro1-CC): no obvious effect on binding; also recorded: weaker phenotype

B4: UBAP1-GFP F268S: UBAP1-GFP with F268S mutation (protein)
chain: MASKKLGADFHGTFSYLDDVPFKTGDKFKTPAKVGLPIGFSLPDCLQVVREVQYDFSLEKKTIEWAEEIKKIEEAEREAECKIAEAEAKVNSKSGPEGDSKMSFSKTHSTATMPPPINPILASLQHNSILTPTRVSSSATKQKVLSPPHIKADFNLADFECEEDPFDNLELKTIDEKEELRNILVGTTGPIMAQLLDNNLPRGGSGSVLQDEEVLASLERATLDFKPLHKPNGFITLPQLGNCEKMSLSSKVSLPPIPAVSNIKSLSSPKLDSDDSNQKTAKLASTFHSTSCLRNGTFQNSLKPSTQSSASELNGHHTLGLSALNLDSGTEMPALTSSQMPSLSVLSVCTEESSPPNTGPTVTPPNFSVSQVPNMPSCPQAYSELQMLSPSERQCVETVVNMGYSYECVLRAMKKKGENIEQILDYLFAHGQLCEKGFDPLLVEEALEMHQCSEEKMMEFLQLMSKFKEMGFELKDIKEVLLLHNNDQDNALEDLMARAGAS
modifications: left off: GFP, end not stated, kept
notes: UBAP1-GFP with F268S mutation
- relocation to mitochondria with HD-PTPBro1-CC [1]: not

B5: F268S: F268S mutation in the FPXL motif of UBAP1, Y2H fragment (protein, UniProt Q9NZ09 1-502, looked up, variant F268S)
Ubiquitin-associated protein 1: MASKKLGADFHGTFSYLDDVPFKTGDKFKTPAKVGLPIGFSLPDCLQVVREVQYDFSLEKKTIEWAEEIKKIEEAEREAECKIAEAEAKVNSKSGPEGDSKMSFSKTHSTATMPPPINPILASLQHNSILTPTRVSSSATKQKVLSPPHIKADFNLADFECEEDPFDNLELKTIDEKEELRNILVGTTGPIMAQLLDNNLPRGGSGSVLQDEEVLASLERATLDFKPLHKPNGFITLPQLGNCEKMSLSSKVSLPPIPAVSNIKSLSSPKLDSDDSNQKTAKLASTFHSTSCLRNGTFQNSLKPSTQSSASELNGHHTLGLSALNLDSGTEMPALTSSQMPSLSVLSVCTEESSPPNTGPTVTPPNFSVSQVPNMPSCPQAYSELQMLSPSERQCVETVVNMGYSYECVLRAMKKKGENIEQILDYLFAHGQLCEKGFDPLLVEEALEMHQCSEEKMMEFLQLMSKFKEMGFELKDIKEVLLLHNNDQDNALEDLMARAGAS
- Y2H binding to HD-PTP (HD-PTPBro1-CC): abolished binding

Molecule: SNIKSLSFPKLDSDDSNQKT (peptide, UniProt Q9NZ09 261-280, looked up, also called UBAP1C peptide) [UBAP1C (UBAP1 peptide containing residues 261-280)]
- Kd [2]: 66.3 ± 0.35 µM
- Kd [3]: 31.9 ± 0.85 µM
